Results as given in article PMC2566859 (Nucleic Acids Research, 2008).

B1: TM1768, large subunit of Thermotoga maritima Exonuclease VII (XseA homolog) (enzyme, UniProt Q9X289 1-394, looked up)
chain: MKDYTYSVTEINEYIKDLIEGDPYLTNVSVYGEISGVRPRKGHIFFSLVEENARLECVIFGGDNMGIRLQEGRMALVEGSVSVYIPHGTYRFICSNVRYLDQAGMYQIKFETTLKKLLEEGLLSRPKKTVPRFPRKIGIITSRDSAALQDVIRTARERKAPIEIYVFHTSVQGDSAREELIKALRKANEYDLDLVMIVRGGGSKEDLWVFNEEDVIREILRLRHPVVTGIGHEIDRVIADFVADVSMHTPTGAAEYVIPDASEIHEDLDSFFEKLITSLSNRFDMEERRLETLYFRLRMIGRRKLELNEFKIERVKELAAKLRKKLMDYFEHNQKKLDSLGRMLESLNPLRPLERGFVLVKKDEKIVKESTDLKRGDVVSLVFKDGTKKAQVIG
B2: TM1769, small subunit of Thermotoga maritima Exonuclease VII (XseB homolog) (natural protein, UniProt Q9X290 1-75, looked up)
chain: MNFEEMMKELEEIVNRLENEDLPLEESIKLFERGVELYRKCKEILQQNRLKIIDVMKELEGEIDASGRDQENELR

Experiments:
[1] = target: B2; test: SEC
SEC = target: the molecule itself; test: SEC

Binder	stoichiometry N [1]	stoichiometry N (SEC)
B1	~4 TM1769 per TM1768	
B2		4
